Measurements taken from a protein production outcome set (Wang et al. 2014).

Experiment: label from the status in PepcDB records

Sequence | protein production
MDRDSSMQAKNLDAQCNPDLKMASANSETLASATHELKIMDVEGGALVDPDHIEEVETSMVIVVDDDDGDVAMVVEEDKHPMRDDPCIEDIMDDEHAPLVAELQSALNNPDDKQASEDPLLEDQEREPDAMSTKTEPSSDAESSHSYHDPMGLLERIEIHDPGDSQDDDDEDDESSNGGGVDGGMRRKMPRAQRWLLWMKRWPWILHEDSDGTLAFCLYCNISINVNNRSRHIQQHNVSLSHQERECNYLAFKKSEEETRGAISDNEIKHEFGTKSYVAAMKQKRISETEAFNNFNWLRWLRWHPWLERSMPTGTIGTCRICSVRMNVEFVYLRKRHETTKGHMEALRNLDSDKRSRKRKRSKSNSVTNSGGDEAEREKESEPEVGPEDAQDTPVVMMNGDVDSGDDPGKWCALIPDTNPQQCRCTLCNCTMAITSFLRHCKTRAHCHMLSTPAEKGSSDIRGIWAVFADMHPWLIADPEDPSIGYCSVCRKRFMYGNSEIKRKNHEKSEKHTLALASAKAGIEVGSADGRGGDNMDEEEAAASDQAQSSQTDDSEDNDDDNWSEIQKLGKGFAHKSSSEPRKATVRAGVRFYPWLCYSKDRKTQICKFCRVRFHNEAAKARHELSARHVKLVKQFKMRQAKLHQGTNTQTKHNAQDDEESQEQDEEYGEEEEDAEEDSQSNFDLGTVQARKTARADNKLFVKPIPATMKGKVMVWKGRFPWLSYKKNEQRGNYAWCKLCEVSLYLPSSKWASKHQRTSRHIRLRIDRKRNGGNPLKTSNKNSGEISTVVATASALASAEARQKAAMAELQAKYDWLDPDANDENHCHCRVCDSRLPIKVFYLRQHDASRKHVENKERQRANAAAAANAPSVSPTSTVDAERQESGMDKESENDMSVRSDGSTAEPLAKRSRRSMEVRRIIRALRDSMGKRQEERSQMDMARDMICSSFDIVTRLRTLERESVAHNESMAQAPPSVTVSPIKPPEPRHVMDLFFDSISPTMKSLPPDLAAEGKSKIMQLVCSLELRAMQRNATTPTPATVSASSKWPSSTTVTPVKTPPAPISAPLASVDADLHSSVVTTPHEYNNGQNNNNDKETVPKEPVTGASSAQVTINGSAKDLPENIRRILTSNQTQVTNRLETDSVRCVPLDKLTTQSRTNVNGRLSQGGTSEAPSTPQADLSNGNTLAMIRQIRVNNNNSSKITVTNTPQMQQPQQAQASITSSTPIMRGGPSSNGCQITTFRTMVNHNRRP | failed
MNSPAHALTKPRRRTPRRAVRLARRALVGLTAAAILAGTGMGWVTYHGALDGITTSNALAGESGSVGDTENILIMGLDSRLDQHGNPLPEDVYQALHAGDETVGGYNANVLIVVHLPGDGGPATAFSIPRDDYVDLAGCPSGICKGKVKQAYGFAYQAEMEATESEEEDPATREQKAREAGRKAEIATVRNLLGIPIDHFVEVTLGAFFEIAKAVAPITVCLNDDTSDPYSGADFRKGVQQIDAAQAMAFVRQRRDINDENFTDLDRTRRQQAFLAALVSALRQSGALSSPSKLRGLLDVTKQNVALDAGFDLASFTKRASALTDAPPTLYTLPIKEFGQNAYGEDINIIDVPTIRKIVHDLVSKDDPATTTATPDKPELNGHGATLDVINGSTYTGLAAKLQTTFAADNFTEGQIGDAEALEPATTIDYGPGADAAAHSLATELGVTATPSDWVLADTVRLTIGTDFPGTDYLGADMFTSTTSGASESESYGPSETAELTPITTVAATATGTYTPAPTDLSQMTASGIPCVK | failed
PCYENKFAPRCARCSKTLTQGGVTYRDQPWHRECLVCTGCQTPLAGQQFTSRDEDPYCVACFGELFA | not failed
AIAELTGQRLREGDGPDGPADDGAGAQADLEHSLLVAAEKKDEGPYRMEHFRWGSPPKDKRYGGFMTSEKSQTPLVTLFKNAIIKNAYKKGE | failed
MTGKKTLSIVGASGYAGGEFLRLALSHPYLEVKQVTSRRFAGEPVHFVHPNLRGRTNLKFVPPEKLEPADILVLALPHGVFAREFDRYSALAPVLVDLSADFRLKDPELYRRYYGEHPRPDLLGRFVYAVPELYREALKGADWIAGAGCNATATLLGLYPLLKAGVLKPTPIFVTLLISTSAGGAEASPASHHPERAGSIRVYKPTGHRHTAEVVENLPGRPEVHLTAIATDRVRGILMTAQCFVQDGWSERDVWQAYREAYAGEPFIRLVKQKKGVHRYPDPRFVQGTNYADIGFELEEDTGRLVVMTAIDNLVKGTAGHALQALNVRMGWPETLGLDFPGLHP | not failed
MRAPLPELPAGTRFGAWAIDRLIGAGGMGQVYLGHRADGAYEREVAIKLVAADALDAQGRALFEFECRLLAQMVHPAIAQIHDVGTDAHGQPYLVMEYLRGEPITWWCDEHRLSLHARVLLMLRVGEAVQHAHQKGVIHRDLKPSNVLVSEIDGRPMPGVIDFGIAVDATNPGMTYAHDRGTPGYMSPEQARGAQDVDARSDIYALGAMFYELSCGLAPVAGRDGVPQPPSQRVAAVPADARARICAARATTYQKLHEQLRDGLDAIVLRALEPQPGARYASVSALLDDLHRWLDGYPPRALQASRWLRLRKFTQRHRSGVAAAGLAAIAVVAGLGATLWSLQQAARDAQRAQVTGDFMSSVLSSVDPGVARDLDKTLMLRVMQQASQRAARELADQPDARTQVELTLGRTLIALANFPQAVEHLRIAQTLAQQTAGAGSLPALKAASMLGQALTGDGKPGDAERVLRQGIAQAARGDAQQQAMGNELRAWLAWALREQGRMRDALAESRHAYVAALANASSSADQRIDAGNSYAAMLADNGQLVPAIALQRSLLRERMAMRGPEHPLVVSMRNSLAVFLLMQRDFAGAEAELVPLLRVTRTLYGESAADTLMIEGNLAGALRQQGKVAEAGPYYRRALERARAAFGNDAPVTIAYRSNHAFWLLDDGQVDASLAEQRAALTASERVLGRAHPQTAEILRGMSEAERRLGQTVAARDHARQALQILTGIFGDADAPLRAARQTLASATPPADSREAEATTAVAQR | failed
MPLLFDSQMTPITNSGWRRHWFEIVYRHDTPPSRNFDLLLMSAILGSVLVVMLDSVLILQAHWKYFLYTLEWLFTLIFTADYLIRLVVVQQRLRYVLSIWGIIDLLSILPTYLSLFMPGTQSLLIVRVLRLLRLFRILKMTHYVEESGELIQALWRSRRKVMLFICTVMTIAMIAGATMYVIEGPQHGFTSIPTGMYWAIVTMTTVGFGDITPQSTLGRFVTSALILIGYSIIAVPTGIYTAELTQGLLRSEEEHRHDMRTCPHCGLQGHDHDARYCRNCGGILPQTLHEPNPATQQ | failed
MSQSSECARPHRRGFDFCASAVFLCTQRAQSVGGCAMRGCPLLLWRPETCQNPAPFCRGFAAQGFTAVSVVSRAVTKTTFFDENLIERVLWQFTMKEQRANAIPATCRYARYSANPTPTPRPVKINESDRTMNFEEKIATHYGHGNLTAAIRSGLQAQGITPEQASVEDLGPVDEFHIGGRAATVHFFDQIDLSETSKALDIGCGLGGAARYAAHSFGSQIEGIDLTPEYVETGGALCQWVGLSDKVNLSVASALSMPFESGDFDIAYMMHVGMNIEDKRALFKEVARVLKPGGTFAIYDIMRSNDEDLVYPVPWASSAETCCLAGPATYRAALEEGGFVVRQENDRRDFAIDFFEKMKKANAGQKSPPPLGLHVLMQQTTAEKIPNMIANLQAGRIKPVEIYAVKQ | failed
MKKAGILLLSLLMPFSTAFAEASKPLSVELLWQLKRIGSPVVSSTGEHIIAPVTEYDLKEDKGSTQLWRFDVEGKNNRAITAKGLKVSEPVFSPDGKTLAFISERNDDDAGQIYLLPMDGPGEAAKLTDIPTGVNGIKWVGKHLYFISNIFPEQNWEQMKAQLKTDKDNKVSARQWNALPYSQFDHWLDERRQAHVFRIPATGGTVEAVTQPLGHELPRSSQSSESYDISPDERLIAFSAYGSDNRVDPKLDLFLATIGGNKAENITPENPAPDLNPSFSPNGKTLAFTRQKIPGFYADTARLMLLDVSSRKLTTLTPDWDRSVSEFEWTPDSKGFYASIEDAATNRIYHIDAKSGKAKAITQATDFSQPAIAKDGQLIATNQSFLYPARLVSINPRNGKTERLEQFNDDILKDVDLGTYESVTYKGYQGQDIQMWVHYPPGFDRSKKYPLFMLIHGGPHNAISDGFHYRWNAQTFASWGYVTAWPNFHGSSGFGQDFADAINPDWKNKSLEDVLKATDWFKQQSWIDSDRMVAGGASYGGYLTSIILGQPHPFKALLIHAAVYDMYAQMSADFAVHSTRFGNYWDNPELYKAISPHYFAANFNTPTLVSHGQLDYRVPVGQGFELFRTLQTRNVESRMIYFPDENHWIVKPNNSIYWYNQVKDWMAHYAKPGAQ | failed
MAMALFQSAPHSLCILRLSAIGDVCNTIAAVQAIQRQWPQTRITWVTGKLEAELIQSLPDIQVIVFDKKLGWRAYTQLWQQLKSERFDALLHMQYAFRASIATLGIKARYKLGFDAARSQDFQTWFTNVKVPSPDKMHVLDGLLAFVEHLGIRDIEPKWSLTCQPDDLTWAEAQFQPEQPRLVVVPGASKAYKNWTAEGYAAVIEHAQQQGWQVILAGSPAQVERDLAAQVEQALAHPVLNLVGKSTLQQMLALLAKADLVIAPDTGPAHMANAMHTPIIGLYAHHNPERTGPYHYRHYVVSAYQEALLAETGKMPQQVDWRTRVKDPNAMQRITAQQVIAMFERAAADIMATQVND | failed
MSAKSKQYFNIFVFIISLIFFDQLSKYLVAKYVKLGSIYFSFFDDFFRIIHVRNTGILFSMGSNIHYSLKKIFFLAMPIFILIFVFYLSLKERNCIARISLLLIFSGGVGNVIDRLFRPSGVVDFLDLKFYGIFGLDRWPTFNFADSYVVIGMILFLVYDFFIKRKVLNK | failed
MLIKRLAFAIMTLVIMTSAGCGFKLQRSYQIPEQLNQLSLSSSDEYSELTRLVRERLRLNNVKIVDAANDVPVLRLITDSLERSTLSLYPTGNVAEYELIYFVEFAVALPGKEAQPFKIEIRRDYLDDPRTALAKSREMELLVKEMRIQAADRILQSMASTEVNLEHHHHHH | not failed
MSKHTKFSPEVRDRAIRMVYEVRESRTSQWAAIEAVASKIGCTAQTLSSWIRKAAAPAAPSASGTDARVKELEREVRELKRANEILKVASAFSAQAELDRRLK | failed
GTLQDGAVDWGVRRTFREYVTGDIAHGEWALTAGAQDGGALFRFPGGEGTYEDGDLNAAFRGTVRFTGAHGLDLSLGNVRTVVEDGRGTLYADVTSPDVKEAKVPLVTFTAGEPKPAGGLVKVTEAPAKLTARGAKAFGGMYRAGTEMDPVSLAVAL | failed
QIPAERDREPSKLKRSYSSPDITQAIQEEEKRKPTVTPTVNRENKPTCYPKAEISRLSASQIRNLNPVFGGSGPALTGLRNLGNTCYMNSILQCLCNAPHLADYFNRNCYQDDINRSNLLGHKGEVAEEFGIIMKALWTGQYRYISPKDFKITIGKINDQFAGYSQQDSQELLLFLMDGLHEDLNKADN | failed
MGSELYLMFFAAITLLAILNPFGNLTQFLAMSDGLPLMLRKKLFRTILYTAFTIVLVFLLSGPLFMNYIFRVSLDDLRVSGGLVLIIMAIKNLLFSTKIATKDFSSYQDMDDKEILRQSLIPMAFPMLVGPGTLASVIVIAEDGGLDVALGGVMIAFIFMFILFHFAATIEKIVGKLILHVFSRIAQVFIVAMGFKMIIVGLKDIFNL | failed
MKIHLGLVVLVFAAMIAAPRSHAADSSAPRVALVIGNSKYPDADKPLSQAVSDARELADDLKRAGFDAELGEDLSGDAMRRAFDRLYQRTKPGAAALVFFSGFGIQSGRQSYLIPADAQIWTEPDVRRDGIALETVLNELNSRGASVKIALIDASRRNPFERRFRSFSAGLAPVIAPSGSLVMYAAALSAVVTDNDSARSPFVTALREEVRAAGRSAEEAFNRARTAVTRASRGEQVPWISSSLAEDFVFTPGAKADKPAVAEPAKQPAAAAPAPAESAKPPTAPAETKPPQAAEAKPSTSRDDDKLVLALASDPTVKSLTAQIADKPSDGNAYYRRGQVYASKGAYRSAIKDFDEAIRLNGKDVEAYNNRCWVRTVIGELEPALADCDQALQLRSNFVDALDSRGLLHLKSGRDKAAIADFDAALKVNPRLTSSLYGRGLARKRIGLASEGEIDLTTAKKLDPNIGKEFAGYGVP | failed
